According to patent US20240117018A1:

Key:
Experiment in all cases: cell-based or functional assay
[1] = target: HIV-1 Env of pseudovirus SC422661.8 (HIV-1)
[2] = target: HIV-1 Env of pseudovirus 3365.v2.c2 (HIV-1)
[3] = target: HIV-1 Env of pseudovirus 1006_11_C3_1601 (HIV-1)
[4] = target: HIV-1 Env of pseudovirus BF1266.431a (HIV-1)
[5] = target: HIV-1 Env of pseudovirus Du172.17 (HIV-1)
[6] = target: HIV-1 Env of pseudovirus 249M B10 (HIV-1)
[7] = target: HIV-1 Env of pseudovirus Du422.1 (HIV-1)
[8] = target: HIV-1 Env of pseudovirus HIV-0013095-2.11 (HIV-1)
[9] = target: HIV-1 Env of pseudovirus Q259.d2.17 (HIV-1)
[10] = target: HIV-1 Env of pseudovirus ZM214M.PL15 (HIV-1)
[11] = target: HIV-1 Env of pseudovirus ZM197M.PB7 (HIV-1)
[12] = target: HIV-1 Env of pseudovirus CNE20 (HIV-1)
[13] = target: HIV-1 Env of pseudovirus Ce1086_B2 (HIV-1)
[14] = target: HIV-1 Env of pseudovirus 3415.v1.c1 (HIV-1)
[15] = target: HIV-1 Env of pseudovirus 1012_11_TC21_3257 (HIV-1)
[16] = target: HIV-1 Env of pseudovirus 7030102001E5(Rev-) (HIV-1)
[17] = target: HIV-1 Env of pseudovirus REJO4541.67 (HIV-1)
[18] = target: HIV-1 Env of pseudovirus 1056_10_TA11_1826 (HIV-1)
[19] = target: HIV-1 Env of pseudovirus CNE17 (HIV-1)
[20] = target: HIV-1 Env of pseudovirus T257-31 (HIV-1)
[21] = target: HIV-1 Env of pseudovirus CNE21 (HIV-1)
[22] = target: HIV-1 Env of pseudovirus Ce2060_G9 (HIV-1)
[23] = target: HIV-1 Env of pseudovirus CNE19 (HIV-1)
[24] = target: HIV-1 Env of pseudovirus Q461.e2 (HIV-1)
[25] = target: HIV-1 Env of pseudovirus RHPA4259.7 (HIV-1)
[26] = target: HIV-1 Env of pseudovirus ZM249M.PL1 (HIV-1)
[27] = target: HIV-1 Env of pseudovirus CNE58 (HIV-1)
[28] = target: HIV-1 Env of pseudovirus Du156.12 (HIV-1)

NIH 45-46 (antibody)
IC50 [1]: 0.01 µg/mL
IC80 [1]: 0.07 µg/mL
IC50 [2]: 0.11 µg/mL
IC80 [2]: 0.11 µg/mL
IC50 [3]: 0.05 µg/mL
IC80 [3]: 0.31 µg/mL
IC50 [4]: 0.01 µg/mL
IC80 [4]: 0.03 µg/mL
IC50 [5]: > 30 µg/mL
IC80 [5]: > 30 µg/mL
IC50 [6]: 0.04 µg/mL
IC80 [6]: 0.17 µg/mL
IC50 [7]: > 50 µg/mL
IC80 [7]: > 50 µg/mL
IC50 [8]: 0.01 µg/mL
IC80 [8]: 0.03 µg/mL
IC50 [9]: 0.01 µg/mL
IC80 [9]: 0.06 µg/mL
IC50 [10]: 0.05 µg/mL
IC80 [10]: 0.39 µg/mL
IC50 [11]: 0.14 µg/mL
IC80 [11]: 0.64 µg/mL
IC50 [12]: 8.71 µg/mL
IC80 [12]: 47 µg/mL
IC50 [13]: 0.04 µg/mL
IC80 [13]: 0.28 µg/mL
IC50 [14]: 0.07 µg/mL
IC80 [14]: 0.07 µg/mL
IC50 [15]: 0.01 µg/mL
IC80 [15]: 0.04 µg/mL
IC50 [16]: 0.14 µg/mL
IC80 [16]: 0.63 µg/mL
IC50 [17]: 0.003 µg/mL
IC80 [17]: 0.01 µg/mL
IC50 [18]: 0.12 µg/mL
IC80 [18]: 0.59 µg/mL
IC50 [19]: 0.15 µg/mL
IC80 [19]: 0.55 µg/mL
IC50 [20]: 0.23 µg/mL
IC80 [20]: 1.11 µg/mL
IC50 [21]: 7.53 µg/mL
IC80 [21]: > 50 µg/mL
IC50 [22]: 0.14 µg/mL
IC80 [22]: 0.48 µg/mL
IC50 [23]: 0.07 µg/mL
IC80 [23]: 0.37 µg/mL
IC50 [24]: 0.06 µg/mL
IC80 [24]: 0.32 µg/mL
IC50 [25]: < 0.05 µg/mL
IC80 [25]: < 0.05 µg/mL
IC50 [26]: 0.02 µg/mL
IC80 [26]: 0.06 µg/mL
IC50 [27]: 0.25 µg/mL
IC80 [27]: 1.49 µg/mL
IC50 [28]: 0.01 µg/mL
IC80 [28]: 0.05 µg/mL

8ANC195 (antibody)
IC50 [1]: 0.29 µg/mL
IC80 [1]: 4.67 µg/mL
IC50 [2]: > 30 µg/mL
IC80 [2]: > 30 µg/mL
IC50 [3]: 0.43 µg/mL
IC80 [3]: 1.98 µg/mL
IC50 [4]: > 50 µg/mL
IC80 [4]: > 50 µg/mL
IC50 [5]: > 30 µg/mL
IC80 [5]: > 30 µg/mL
IC50 [6]: > 50 µg/mL
IC80 [6]: > 50 µg/mL
IC50 [7]: > 50 µg/mL
IC80 [7]: > 50 µg/mL
IC50 [8]: 0.32 µg/mL
IC80 [8]: 1.85 µg/mL
IC50 [9]: > 50 µg/mL
IC80 [9]: > 50 µg/mL
IC50 [10]: 0.91 µg/mL
IC80 [10]: 12.3 µg/mL
IC50 [11]: 23.4 µg/mL
IC80 [11]: > 50 µg/mL
IC50 [12]: 0.5 µg/mL
IC80 [12]: 3.19 µg/mL
IC50 [13]: 4.42 µg/mL
IC80 [13]: 19.1 µg/mL
IC50 [14]: 17.7 µg/mL
IC80 [14]: 17.7 µg/mL
IC50 [15]: > 50 µg/mL
IC80 [15]: > 50 µg/mL
IC50 [16]: 0.86 µg/mL
IC80 [16]: 8.32 µg/mL
IC50 [17]: 0.08 µg/mL
IC80 [17]: 0.68 µg/mL
IC50 [18]: > 50 µg/mL
IC80 [18]: > 50 µg/mL
IC50 [19]: 2.59 µg/mL
IC80 [19]: 11.1 µg/mL
IC50 [20]: 0.32 µg/mL
IC80 [20]: 3.89 µg/mL
IC50 [21]: 0.27 µg/mL
IC80 [21]: 1.52 µg/mL
IC50 [22]: 6.2 µg/mL
IC80 [22]: > 50 µg/mL
IC50 [23]: 0.29 µg/mL
IC80 [23]: 1.73 µg/mL
IC50 [24]: 0.63 µg/mL
IC80 [24]: 2.51 µg/mL
IC50 [25]: 0.34 µg/mL
IC80 [25]: 1.56 µg/mL
IC50 [26]: > 50 µg/mL
IC80 [26]: > 50 µg/mL
IC50 [27]: > 50 µg/mL
IC80 [27]: > 50 µg/mL
IC50 [28]: 0.22 µg/mL
IC80 [28]: 1.56 µg/mL
